# Article PMC3695229, “Identification of a Novel TGF-β-Binding Site in the Zona Pellucida C-terminal (ZP-C) Domain of TGF-β-Receptor-3 (TGFR-3)” (PLoS ONE, 2013)
# B1: murine TGFR-3-ZP (recombinant ZP domain of TGF-β receptor type 3, residues 438-782, including the EHP) (domain or fragment, mouse, UniProt O88393 438-782, looked up)
# chain: REPEEVQGGVNIALSVKCDNEKMVVAVDKDSFQTNGYSGMELTLLDPSCKAKMNGTHFVLESPLNGCGTRHRRSAPDGVVYYNSIVVQAPSPGDSSGWPDGYEDLESGDNGFPGDTDEGETAPLSRAGVVVFNCSLRQLRSPSGFQDQLDGNATFNMELYNTDLFLVPSPGVFSVAENEHVYVEVSVTKADQDLGFAIQTCFISPYSNPDRMSDYTIIENICPKDDSVKFYSSKRVHFPIPHAEVDKKRFSFVFKSVFNTSLLFLHCELTLCSRNKGSQKLPKCVTPDDACTSLDATMIWTMMQNKKTFTKPLAVVLQVDYKENVPNMKESSPVPPPPQIFHGLD
# modifications: secretory glycoprotein; four potential N-glycosylation sites (positions 491, 570, 589 and 696)
# notes: TGF-β receptor type 3 (TGFR-3, betaglycan), mouse, residues 438-782 (ZP core domain plus C-terminal extension 729-782 with the EHP); numbering adheres to UniProtKB/TrEMBL O88393 and includes the N-terminal signal peptide; From the forward primer the thrombin site LVPRGS precedes residue 438, so Gly-Ser probably remain after cleavage (surmised); Dimer by DLS and SEC only (apparent masses); also …
# B2: TGFR-3-ZP(234) (domain or fragment, mouse, UniProt O88393 438-782, looked up)
# chain: REPEEVQGGVNIALSVKCDNEKMVVAVDKDSFQTNGYSGMELTLLDPSCKAKMNGTHFVLESPLNGCGTRHRRSAPDGVVYYNSIVVQAPSPGDSSGWPDGYEDLESGDNGFPGDTDEGETAPLSRAGVVVFQCSLRQLRSPSGFQDQLDGQATFNMELYNTDLFLVPSPGVFSVAENEHVYVEVSVTKADQDLGFAIQTCFISPYSNPDRMSDYTIIENICPKDDSVKFYSSKRVHFPIPHAEVDKKRFSFVFKSVFQTSLLFLHCELTLCSRNKGSQKLPKCVTPDDACTSLDATMIWTMMQNKKTFTKPLAVVLQVDYKENVPNMKESSPVPPPPQIFHGLD
# modifications: one remaining potential N-glycosylation site (N491)
# notes: TGF-β receptor type 3 (TGFR-3, betaglycan), mouse, residues 438-782 with three of four potential N-glycosylation sites mutated to glutamine; numbering adheres to O88393 including the signal peptide; Same construct and vector as m1; also called glycosylation-attenuated TGFR-3-ZP variant; source: HEK293 EBNA cells, secreted, purified (Ni-Sepharose, thrombin cleavage, SEC); not shown: His6, …
# Tests used:
# [1] = molecular target: the molecule itself; assay: dynamic light scattering; TGFR-3-ZP alone, 2 mg/ml, 20 mM HEPES pH 7.4, 20°C; apparent molecular weight from hydrodynamic radius
# [2] = molecular target: the molecule itself; assay: SEC; analytical SEC of the ligand-free protein on Superdex 200 10/300, 4°C, 0.5 ml/min; apparent molecular weight against standards
# [3] = molecular target: B1; assay: SPR; Biacore 2000; biotinylated ligands immobilised on streptavidin-coated CM5 chip, TGFR-3-ZP variants as analytes; 25°C, HBS500 (10 mM HEPES pH 7.4, 500 mM NaCl, 3.4 mM EDTA, 0.005% P20); apparent affinities from equilibrium binding; conditions: both partners purified
# TGFR-3-ZP(234) = molecular target: B2; assay: as above; conditions: both partners purified
binder,measurement,setting,value
B1,stoichiometry N,[1],2
B2,stoichiometry N,[2],2
"human BMP-2 (ligand, UniProt P12643 283-396, looked up, biotinylated with Sulfo-NHS-LC-biotin (1 or 2 biotin moieties) for immobilisation, bone morphogenetic protein 2, human; also called bone morphogenetic protein 2) QAKHKQRKRLKSSCKRHPLYVDFSDVGWNDWIVAPPGYHAFYCHGECPFPLADHLNSTNHAIVQTLVNSVNSKIPKACCVPTELSAISMLYLDENEKVVLKNYQDMVVEGCGCR",Kd,[3],29.1 µM
same,Kd,TGFR-3-ZP(234),34.6 µM
